Assay [1] deals with T1, endogenous PTPL1 (Protein Tyrosine Phosphatase Like-Protein-1) of 293 cells (human, UniProt Q12923 1-2485, limits assumed).
T1 construct: also called FAP-1; endogenously expressed PTPL1
The assay can be described thus: GST pull-down from 293 cells; pNPP phosphatase assay and anti-PTPL1 immunoblot. As for the experimental part: Rates or amounts of para-nitrophenol production were calculated using a standard curve generated from known amounts of para-nitrophenol. For the insulin receptor peptide assay a 50 μl reaction was set up containing 20 mM Tris pH7.4, 150 mM NaCl, 1 mM DTT, 20 μM of the tyrosine-phosphorylated peptide and 100 ng of GST-PTPL1. After 10 min at room temperature, the reactions were terminated by the addition of 0.1 ml of BIOMOL green reagent and after an additional 20 min the amount of phosphate liberated was quantitated by absorbance at 620 nm and measured against inorganic phosphate standards. In all assays we ensured that the rate of para-nitrophenol formation or the dephosphorylation of the insulin receptor peptide, was linear with time.
Immunoblotting. For blots of total cell lysates or tissues 20 μg of protein was used. For the purified GST fusion proteins to detect association of endogenous PTPL1, 10 μg of fusion protein was employed for the PTPL1 blots and 0.1 μg for the GST blots. Samples were subjected to SDS/PAGE and transferred to nitrocellulose. […]
(A western blot detects proteins with antibodies after separation by electrophoresis.)

For assay [2], the target named is T1, endogenous PTPL1 (Protein Tyrosine …). The assay can be described thus: cell-based or functional assay.

Experimental findings from patent US20070054328A1 (published 2007) are described below.

T1 sequence (Q12923 whole entry): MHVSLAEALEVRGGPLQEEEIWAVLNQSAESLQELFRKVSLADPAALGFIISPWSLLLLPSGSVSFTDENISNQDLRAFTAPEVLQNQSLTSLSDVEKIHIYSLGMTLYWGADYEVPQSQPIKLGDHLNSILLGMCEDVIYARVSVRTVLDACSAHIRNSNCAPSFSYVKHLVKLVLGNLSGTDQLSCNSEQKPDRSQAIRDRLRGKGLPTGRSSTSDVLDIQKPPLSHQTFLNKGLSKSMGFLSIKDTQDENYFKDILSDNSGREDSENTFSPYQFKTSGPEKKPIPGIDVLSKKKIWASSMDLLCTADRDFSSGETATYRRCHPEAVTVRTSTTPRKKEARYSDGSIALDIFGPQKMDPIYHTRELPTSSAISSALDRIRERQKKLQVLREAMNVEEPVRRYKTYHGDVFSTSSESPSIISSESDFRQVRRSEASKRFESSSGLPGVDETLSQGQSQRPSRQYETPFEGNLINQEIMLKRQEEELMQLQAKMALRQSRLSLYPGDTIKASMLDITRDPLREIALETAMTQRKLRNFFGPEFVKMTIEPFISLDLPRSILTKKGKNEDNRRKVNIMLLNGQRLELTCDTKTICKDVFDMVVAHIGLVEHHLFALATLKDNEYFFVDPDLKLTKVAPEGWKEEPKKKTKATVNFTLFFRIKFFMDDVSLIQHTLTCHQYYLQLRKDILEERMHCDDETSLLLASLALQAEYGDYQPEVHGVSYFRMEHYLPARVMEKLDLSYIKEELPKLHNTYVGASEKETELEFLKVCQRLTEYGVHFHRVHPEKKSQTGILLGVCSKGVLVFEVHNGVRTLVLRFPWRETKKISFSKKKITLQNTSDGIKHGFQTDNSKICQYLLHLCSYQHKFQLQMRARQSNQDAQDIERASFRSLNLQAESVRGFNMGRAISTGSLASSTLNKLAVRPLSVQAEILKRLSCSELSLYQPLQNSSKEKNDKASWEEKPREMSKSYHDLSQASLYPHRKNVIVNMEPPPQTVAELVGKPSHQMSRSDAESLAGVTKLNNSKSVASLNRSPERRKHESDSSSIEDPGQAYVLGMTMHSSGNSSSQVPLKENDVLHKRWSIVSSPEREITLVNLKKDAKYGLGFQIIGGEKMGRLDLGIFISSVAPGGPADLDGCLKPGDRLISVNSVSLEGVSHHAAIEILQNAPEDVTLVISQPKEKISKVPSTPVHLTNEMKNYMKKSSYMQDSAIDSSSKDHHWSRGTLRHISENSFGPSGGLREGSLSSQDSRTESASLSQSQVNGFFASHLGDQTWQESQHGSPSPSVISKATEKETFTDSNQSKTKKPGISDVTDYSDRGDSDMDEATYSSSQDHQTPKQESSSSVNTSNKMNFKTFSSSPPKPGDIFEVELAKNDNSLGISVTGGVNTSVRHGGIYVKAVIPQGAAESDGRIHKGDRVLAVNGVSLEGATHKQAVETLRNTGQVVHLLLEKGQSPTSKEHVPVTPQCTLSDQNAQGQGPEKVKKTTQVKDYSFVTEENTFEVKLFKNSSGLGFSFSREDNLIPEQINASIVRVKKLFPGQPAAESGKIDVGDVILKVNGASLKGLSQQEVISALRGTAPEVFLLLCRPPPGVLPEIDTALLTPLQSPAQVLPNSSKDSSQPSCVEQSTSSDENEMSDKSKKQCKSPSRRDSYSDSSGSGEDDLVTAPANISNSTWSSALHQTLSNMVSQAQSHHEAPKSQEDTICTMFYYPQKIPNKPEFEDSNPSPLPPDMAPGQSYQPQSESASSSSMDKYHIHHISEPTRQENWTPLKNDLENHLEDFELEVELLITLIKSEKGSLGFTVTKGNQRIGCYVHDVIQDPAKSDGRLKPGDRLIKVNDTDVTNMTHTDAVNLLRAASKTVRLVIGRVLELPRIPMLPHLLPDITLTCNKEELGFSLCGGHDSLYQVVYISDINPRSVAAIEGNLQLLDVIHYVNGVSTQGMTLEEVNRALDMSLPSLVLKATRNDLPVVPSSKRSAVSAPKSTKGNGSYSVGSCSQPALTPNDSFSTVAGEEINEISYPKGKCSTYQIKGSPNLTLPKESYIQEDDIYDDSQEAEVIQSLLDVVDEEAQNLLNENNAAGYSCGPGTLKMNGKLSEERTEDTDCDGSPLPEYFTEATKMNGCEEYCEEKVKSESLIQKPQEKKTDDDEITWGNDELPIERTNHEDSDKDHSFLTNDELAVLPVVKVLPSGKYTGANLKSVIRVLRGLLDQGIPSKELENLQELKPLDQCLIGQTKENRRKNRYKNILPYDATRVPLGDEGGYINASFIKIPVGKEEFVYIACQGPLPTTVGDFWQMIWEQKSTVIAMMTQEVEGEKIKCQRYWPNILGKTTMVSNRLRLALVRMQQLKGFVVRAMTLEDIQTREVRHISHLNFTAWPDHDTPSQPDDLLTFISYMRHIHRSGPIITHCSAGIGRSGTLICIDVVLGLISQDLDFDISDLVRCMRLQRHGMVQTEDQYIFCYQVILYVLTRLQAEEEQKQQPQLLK

B1: GST-DAPP1 (other, UniProt Q9UN19 1-280, looked up)
chain: MGRAELLEGKMSTQDPSDLWSRSDGEAELLQDLGWYHGNLTRHAAEALLLSNGCDGSYLLRDSNETTGLYSLSVRAKDSVKHFHVEYTGYSFKFGFNEFSSLKDFVKHFANQPLIGSETGTLMVLKHPYPRKVEEPSIYESVRVHTAMQTGRTEDDLVPTAPSLGTKEGYLTKQGGLVKTWKTRWFTLHRNELKYFKDQMSPEPIRILDLTECSAVQFDYSQERVNCFCLVFPFRTFYLCAKTGVEADEWIKILRWKLSQIRKQLNQGEGTIRSRSFIFK
notes: Control GST fusion expressed in 293 cells; also called dual adaptor for phosphotyrosine and 3-phosphoinositides; not shown: N-terminal glutathione S-transferase (GST) tag
On to B1, for which the binding result in assay [1] is “no binding”.

B2: GST-FAPP1 (other, UniProt Q9HB20 1-300, looked up)
chain: MEGVLYKWTNYLTGWQPRWFVLDNGILSYYDSQDDVCKGSKGSIKMAVCEIKVHSADNTRMELIIPGEQHFYMKAVNAAERQRWLVALGSSKACLTDTRTKKEKEISETSESLKTKMSELRLYCDLLMQQVHTIQEFVHHDENHSSPSAENMNEASSLLSATCNTFITTLEECVKIANAKFKPEMFQLHHPDPLVSPVSPSPVQMMKRSVSHPGSCSSERSSHSIKEPVSTLHRLSQRRRRTYSDTDSCSDIPLEDPDRPVHCSKNTLNGDLASATIPEESRLMAKKQSESEDTLPSFSS
notes: Control GST fusion expressed in 293 cells; not shown: N-terminal glutathione S-transferase (GST) tag
On to B2, for which the binding result in assay [1] is reported as “no binding”.

B3: endogenous TAPP1 of 293 cells (other, human, UniProt Q9HB21 1-404, looked up)
chain: MPYVDRQNRICGFLDIEENENSGKFLRRYFILDTREDSFVWYMDNPQNLPSGSSRVGAIKLTYISKVSDATKLRPKAEFCFVMNAGMRKYFLQANDQQDLVEWVNVLNKAIKITVPKQSDSQPNSDNLSRHGECGKKQVSYRTDIVGGVPIITPTQKEEVNECGESIDRNNLKRSQSHLPYFTPKPPQDSAVIKAGYCVKQGAVMKNWKRRYFQLDENTIGYFKSELEKEPLRVIPLKEVHKVQECKQSDIMMRDNLFEIVTTSRTFYVQADSPEEMHSWIKAVSGAIVAQRGPGRSASSEHPPGPSESKHAFRPTNAATATSHSTASRSNSLVSTFTMEKRGFYESLAKVKPGNFKVQTVSPREPASKVTEQALLRPQSKNGPQEKDCDLVDLDDASLPVSDV
B3: the “pNPP phosphatase activity immunoprecipitated with the anti-PTPL1 antibody compared with the TAPP1 antibody” value in assay [2] was approximately 6 fold.
